Test results published in US8008547B2, “Glyphosate-N-acetyltransferase (GAT) genes” (E.I. duPont de Nemours, priority 2000, dated 2011).
Where a chain is given by its changes, count along the chain named.

B1: SEQ ID NO: 486: GAT polypeptide (protein)
chain: MLEVKPINAEDTYELRHRILRPNQPIEACMYESDLLRGAFHLGGYYRGKLISIASFHQAEHSELQGQKQYQLRGMATLEGYREQKAGSSLVKHAEEILRKRGADLLWCNARTSASGYYKKLGFSEQGEIFETPPVGPHILMYKRIT
modifications: 3_11A10
notes: GAT polypeptide
B2: SEQ ID NO: 487: GAT polypeptide (protein)
chain: B1 chain with Y45F, V91I, I145L
modifications: 3_14F6
notes: GAT polypeptide
B3: SEQ ID NO: 488: GAT polypeptide (protein)
chain: B1 chain with R18K, I26L, A28V, S33T, R47G, V91I
modifications: 3_15B2
notes: GAT polypeptide
B4: SEQ ID NO: 490: GAT polypeptide (protein)
chain: B1 chain with S62P, V91I, I129V
modifications: 3_6B1
notes: GAT polypeptide
B5: SEQ ID NO: 480: GAT polypeptide (protein)
chain: MIEVKPINAEDTYELRHKILRPNQPIEACMYESDLLRGSFHLGGFYRGKLISIASFHKAEHSDLEGQNQYQLRGMATLEGYREQKAGSTLIRHAEEILRKRGADMLWCNARTSASGYYKRLGFSEHGEIFDTPPVGPHILMYKRLT
modifications: 1_4C5
notes: GAT polypeptide
B6: SEQ ID NO: 481: GAT polypeptide (protein)
chain: B5 chain with I2L, K18R, S33T, K49Q, N68K, E96Q, S115A, H126Q, I129V, D131E
modifications: 1_4D6
notes: GAT polypeptide
B7: SEQ ID NO: 483: GAT polypeptide (protein)
chain: MLEVKPINAEETYELRHKILRPNQPLEACMYESDLLRGSFHLGGYYRGQLISIASFHQAEHSELEGQKQYQLRGMATLEGFREQKAGSTLIKHAEQILRKRGADMLWCNARTSAAGYYKKLGFSEHGEIFDTPPVGPHILMYKKLT
modifications: 1_5H5
notes: GAT polypeptide
B8: SEQ ID NO: 473: GAT polypeptide (protein)
chain: MIEVKPINAEDTYELRHRILRPNQPIEACMYESDLLRGSFHLGGFYRGKLISIASFHQAEHSDLQGQKQYQLRGMATLEGYREQKAGSSLIKHAEQLLRKKGADMLWCNARTSAAGYYKRLGFSEHGEIFETPPVGPHILMYKRIT
modifications: 1_2D4
notes: GAT polypeptide
B9: SEQ ID NO: 489: GAT polypeptide (protein)
chain: B1 chain with L2I, V91I
modifications: 3_6A10
notes: GAT polypeptide
B10: SEQ ID NO: 478: GAT polypeptide (protein)
chain: B8 chain with D11E, H17Q, K49Q, D63E, S89T, Q96E, L97I, M105L, E131D
modifications: 1_3F3
notes: GAT polypeptide
B11: SEQ ID NO: 482: GAT polypeptide (protein)
chain: B5 chain with K18R, I26L, S33T, K58Q, E65Q, N68K, E96Q, I97L, M105L, I129V
modifications: 1_4H1
notes: GAT polypeptide
B12: SEQ ID NO: 476: GAT polypeptide (protein)
chain: B8 chain with S39A, K92R, Q96E, L97I, S113T, H126Q, I129V, E131D
modifications: 1_3A2
notes: GAT polypeptide
B13: SEQ ID NO: 484: GAT polypeptide (protein)
chain: B8 chain with D11E, Q65E, E83D, S89T, Q96E, K101R, F130Y, R144K
modifications: 1_6F12
notes: GAT polypeptide
B14: SEQ ID NO: 477: GAT polypeptide (protein)
chain: MIEVKPINAEDTYELRHKILRPNQPIEACMYESDLLQGSFHLGGFYRGQLISIASFHQAEHSDLQGQKQYQLRGMATLEGFREQKAGSTLIKHAEEILRKKGADLLWCNARTSAAGYYKKLGFSEHGEIFDTPPAGPHILMYKKLT
modifications: 1_3D6
notes: GAT polypeptide
B15: SEQ ID NO: 485: GAT polypeptide (protein)
chain: B14 chain with Q37R, Q65E, F81Y, E83D, T89S, K101R, K120R, H126Q, A135V, L145I
modifications: 1_6H6
notes: GAT polypeptide
B16: SEQ ID NO: 278: GAT polypeptide (protein)
chain: MIEVKPINAEDTYEIRHRILRPNQPLEACKYETDLLRGAFHLGGYYRGKLISIASFHQAEHPELEGQKQYQLRGMATLEGYREQKAGSTLIRHAEELLRKKGADLLWCNARTSASGYYKKLGFSEQGEVYDTPPVGPHILMYKKLT
modifications: 10_2C7
notes: GAT polypeptide
B17: SEQ ID NO: 279: GAT polypeptide (protein)
chain: B16 chain with R37G, A39T, I51V, T132I, V135T
modifications: 10_3G5
notes: GAT polypeptide
B18: SEQ ID NO: 474: GAT polypeptide (protein)
chain: MLEVKPINAEDTYELRHRILRPNQPLEACMYETDLLRGSFHLGGFYRGKLISIASFHQAEHSELEGQKQYQLRGMATLEGYRDQKAGSSLIRHAEEILRKRGADMLWCNARTTAAGYYKKLGFSEQGEIYDTPPVGPHILMYKKLT
modifications: 1_2F8
notes: GAT polypeptide
B19: SEQ ID NO: 475: GAT polypeptide (protein)
chain: MIEVKPINAEETYELRHKILRPNQPLEACMYETDLLRGAFHLGGFYRGKLISIASFHQADHSELQGQKQYQLRGMATLEGYREQKAGSTLIRHAEQILRKRGADLLWCNARTSAAGYYKKLGFSEHGEIFETPPVGPHILMYKRLT
modifications: 1_2H8
notes: GAT polypeptide
B20: SEQ ID NO: 479: GAT polypeptide (protein)
chain: MIEVKPINAEDTYELRHRILRPNQPIEACMYETDLLRGAFHLGGYYRGQLISIASFHKAEHSELQGQKQYQLRGMATLEGYREQKAGSTLIKHAEQLLREKGADMLWCNARTSAAGYYKRLGFSEQGEVFDTPPVGPHILMYKKLT
modifications: 1_3H2
notes: GAT polypeptide

Assay: Standard protocol for determination of kcat and KM (continuous spectrophotometric assay, Acetyl CoA hydrolysis at 235 nm)
Type: biochemical
Conditions: purified protein; about 23° C.; 20 mM HEPES pH 6.8, 10% ethylene glycol, 0.2 mM acetyl CoA
Procedure, shortened: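 KM from initial rates over 0.125–10 mM glyphosate, fitted by Lineweaver-Burke transformation of Michaelis-Menten; kcat/KM computed as kcat divided by KM. Continuous spectrophotometric read of acetyl-CoA hydrolysis at 235 nm.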

**Q.** With B1 as the molecule, how does the Kcat read?
**A.** Its Kcat is 2.2568 s⁻¹.

**Q.** Which Kcat does the source give for B2 here?
**A.** The Kcat was 3.1405 s⁻¹.

**Q.** With B3 as the molecule, how does the Kcat read?
**A.** The Kcat was 1.7355 s⁻¹.

**Q.** Which Kcat does the source give for B4 here?
**A.** The Kcat was 4.3847 s⁻¹.

**Q.** For B5, which Kcat is on record?
**A.** Its Kcat is 4.23 s⁻¹.

**Q.** Which Kcat does the source give for B6 here?
**A.** The Kcat was 2.28 s⁻¹.

**Q.** Which Kcat does the source give for B7 here?
**A.** The Kcat was 3.57 s⁻¹.

**Q.** For B8, which Kcat is on record?
**A.** The Kcat was 3.03 s⁻¹.

**Q.** For B9, which Kcat is on record?
**A.** Its Kcat is 2.108 s⁻¹.

**Q.** With B10 as the molecule, how does the Kcat read?
**A.** Its Kcat is 2.78 s⁻¹.

**Q.** With B11 as the molecule, how does the Kcat read?
**A.** The Kcat was 3.93 s⁻¹.

**Q.** Which Kcat does the source give for B12 here?
**A.** Its Kcat is 3.02 s⁻¹.

**Q.** With B13 as the molecule, how does the Kcat read?
**A.** The Kcat was 3.48 s⁻¹.

**Q.** With B14 as the molecule, how does the Kcat read?
**A.** The Kcat was 3.77 s⁻¹.

**Q.** With B15 as the molecule, how does the Kcat read?
**A.** The Kcat was 4.57 s⁻¹.

**Q.** For B16, which Kcat is on record?
**A.** The Kcat was 2.25 s⁻¹.

**Q.** With B17 as the molecule, how does the Kcat read?
**A.** Its Kcat is 1.46 s⁻¹.

**Q.** With B18 as the molecule, how does the Kcat read?
**A.** The Kcat was 2.68 s⁻¹.

**Q.** With B19 as the molecule, how does the Kcat read?
**A.** Its Kcat is 2.35 s⁻¹.

**Q.** Which Kcat does the source give for B20 here?
**A.** The Kcat was 2.13 s⁻¹.

Same assay, conditions: purified protein; about 23° C.; pH 6.8; 0.2 mM acetyl CoA; glyphosate 0.125 to 10 mM

**Q.** For B1, which Km is on record?
**A.** The Km was 170 µM.

**Q.** Which Km does the source give for B2 here?
**A.** Its Km is 250 µM.

**Q.** Which Km does the source give for B4 here?
**A.** Its Km is 430 µM.

**Q.** Which Km does the source give for B5 here?
**A.** Its Km is 930 µM.

**Q.** With B6 as the molecule, how does the Km read?
**A.** Its Km is 1400 µM.

**Q.** For B7, which Km is on record?
**A.** Its Km is 510 µM.

**Q.** With B8 as the molecule, how does the Km read?
**A.** The Km was 1200 µM.

**Q.** For B9, which Km is on record?
**A.** Its Km is 660 µM.

**Q.** For B10, which Km is on record?
**A.** The Km was 1500 µM.

**Q.** Which Km does the source give for B11 here?
**A.** Its Km is 1200 µM.

**Q.** Which Km does the source give for B12 here?
**A.** The Km was 800 µM.

**Q.** For B13, which Km is on record?
**A.** The Km was 14700 µM.

**Q.** Which Km does the source give for B14 here?
**A.** Its Km is 3500 µM.

**Q.** With B15 as the molecule, how does the Km read?
**A.** The Km was 1050 µM.

**Q.** For B16, which Km is on record?
**A.** Its Km is 1400 µM.

**Q.** Which Km does the source give for B17 here?
**A.** The Km was 2000 µM.

**Q.** Which Km does the source give for B18 here?
**A.** Its Km is 1900 µM.

**Q.** For B19, which Km is on record?
**A.** The Km was 480 µM.

**Q.** Which Km does the source give for B20 here?
**A.** Its Km is 700 µM.
